Assay results reported in article PMC8565330.

Target: GST-G3BP1 (human, UniProt Q13283 1-466)
Test: fluorescence anisotropy

Sequence of GST-G3BP1 (Q13283 whole entry): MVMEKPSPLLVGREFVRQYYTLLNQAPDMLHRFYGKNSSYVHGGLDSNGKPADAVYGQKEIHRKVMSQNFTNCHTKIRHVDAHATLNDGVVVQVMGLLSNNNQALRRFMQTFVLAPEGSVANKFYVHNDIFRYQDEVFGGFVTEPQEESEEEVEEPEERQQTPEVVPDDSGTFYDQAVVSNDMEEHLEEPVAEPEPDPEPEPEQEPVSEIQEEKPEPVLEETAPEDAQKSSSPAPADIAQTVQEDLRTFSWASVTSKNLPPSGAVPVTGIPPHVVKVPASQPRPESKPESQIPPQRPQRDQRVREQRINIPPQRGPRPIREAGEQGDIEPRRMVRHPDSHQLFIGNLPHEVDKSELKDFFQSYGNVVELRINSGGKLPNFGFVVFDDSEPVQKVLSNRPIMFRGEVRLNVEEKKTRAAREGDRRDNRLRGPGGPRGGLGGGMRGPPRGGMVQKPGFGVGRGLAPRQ

Binder | Kd
GUGUAAAAGGGGCGGGUCUGGGUGCG (ssRNA) [NRAS rM4] | 266 ± 36 nM
GAGCGCGGAAGCGCGCGCGCGCGCGCGCGG (ssRNA) [PITX1 rM4] | 761 ± 73 nM
